Measurements as given in US20250281611A1 (BIOSCEPTRE AUST, published 2025).

Legend:
CD19 [1] = target: T1, CD19 (UniProt P15391 20-556, limits assumed); experiment: flow cytometry, JeKo-1 cells, BIL03s-AF647 detection, MFI over no-bridge control
T1 construct: whole, on cells; also called CD19 on JeKo-1
T1 sequence (looked up): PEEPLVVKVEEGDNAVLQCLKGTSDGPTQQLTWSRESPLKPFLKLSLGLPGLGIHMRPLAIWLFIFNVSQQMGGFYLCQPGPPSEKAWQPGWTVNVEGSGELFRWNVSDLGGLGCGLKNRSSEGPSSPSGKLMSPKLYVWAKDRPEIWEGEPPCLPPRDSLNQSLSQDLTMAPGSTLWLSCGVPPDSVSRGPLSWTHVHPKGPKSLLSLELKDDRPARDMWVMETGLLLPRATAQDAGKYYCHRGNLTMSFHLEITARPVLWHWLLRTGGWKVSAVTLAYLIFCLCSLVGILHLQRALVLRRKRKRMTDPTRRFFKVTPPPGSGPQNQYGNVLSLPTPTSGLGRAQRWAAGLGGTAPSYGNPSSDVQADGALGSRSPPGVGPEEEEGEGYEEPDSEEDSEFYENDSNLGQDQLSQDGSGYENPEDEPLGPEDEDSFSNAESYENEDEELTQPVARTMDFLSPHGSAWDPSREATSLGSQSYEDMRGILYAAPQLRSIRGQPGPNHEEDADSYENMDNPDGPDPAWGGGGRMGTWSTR
Procedure: (§1) JeKo-1 cells were incubated with different CD19 BRiDGE variants at saturating concentrations. […] The MFI intensity correlates with the number of secondary bound antibodies bound to the CD19 BRiDGE variants that are only detected if they are bound to the JeKo-1 cells. MFI: median fluorescence intensity. BLitz: Bio-Layer interferometry (BLI) technology using HIS-tag identification tips. […] The higher the MFIR, the stronger the binding.

nfP2X7 CAR 1 [2] = target: T2, nfP2X7 CAR 1; experiment: flow cytometry, anti-His-FITC, MFI on EGFR+ (CAR+) over EGFR- (CAR-) T cells
T2 construct: CAR-positive cells gated by the co-expressed EGFR marker; also called nfP2X7 targeted CAR; nfP2X7 CAR on EGFR+ T cells
Procedure: (§2) nfP2X₇ CAR T cells were incubated with different BRiDGE variants at saturating concentrations. […] The MFI intensity correlates with the number of secondary bound antibodies bound to the BRiDGEs that are only detected if they are bound to the CAR T cells. EGFR was used as a marker gene to detect the CAR expression. Thus, the EGFR+ T cell population was defined as the CAR expressing cells and the EGFR− T cell population was defined as the CAR negative subset. MFI: median fluorescence intensity. EGFR: epidermal growth factor receptor. BLItz: Bio-Layer interferometry (BLI) technology using HIS-tag identification tips. HIS-tag MFI Ratio: relative index that is calculated by the testing condition MFI divided by the control MFI, which corresponds to the MFI measured on EGFR+ T cells (defined as CAR positive cells) divided by the MFI measured on the EGFR− T cells (defined as CAR negative cells). […] The higher the MFIR, the stronger the binding.

nfP2X7 CAR 1 [3] = target: T2, nfP2X7 CAR 1; experiment: flow cytometry, anti-His-FITC, MFI on EGFR+ (CAR+) T cells over background 0.44
Procedure: as §2

CD19 [4] = target: T1, CD19; experiment: flow cytometry, JeKo-1 cells, bridge at saturating conc., anti-His-FITC detection
Procedure: as §1

CD19 [5] = target: T1, CD19; experiment: flow cytometry, JeKo-1 cells, bridge at saturating conc., BIL03s-AF647 detection
Procedure: as §1

CD19 [6] = target: T1, CD19; experiment: flow cytometry, JeKo-1 cells, anti-His-FITC detection, MFI over no-bridge control
Procedure: as §1

nfP2X7 CAR 1 [7] = target: T2, nfP2X7 CAR 1; experiment: flow cytometry, nfP2X7 CAR 1 T cells (EGFR+ gate), anti-His-FITC detection
Procedure: as §2

Row | Binder | MFIR BIL03 AF647 (CD19 [1]) | HisTag MFI Ratio of EGFR+/EGFR- (nfP2X7 CAR 1 [2]) | HisTag MFI Ratio (background 0.44) (nfP2X7 CAR 1 [3]) | MFI HisTag FITC (CD19 [4]) | MFI Bil03 AF647 (CD19 [5]) | MFIR HisTag FITC (CD19 [6]) | MFI HisTag FITC in EGFR+ Population (nfP2X7 CAR 1 [7])
1 | CD19 BRIDGE variant B1 (Fab, V domains shown) VH: EVQLVESGGGLVKPGGSLKLSCAASGYTFTSYVMHWVRQAPGKGLEWIGYINPYNDGTKYNEKFQGRVTISSDKSISTAYMELSSLRSEDTAMYYCARGTYYYGTRVFDYWGQGTLVTVSS VL: DIVMTQSPATLSLSPGERATLSCRSSKSLQNVNGNTYLYWFQQKPGQSPQLLIYRMSNLNSGVPDRFSGSGSGTEFTLTISSLEPEDFAVYYCMQHLEYPITFGAGTKLEIKR | 6.93 | 4 | 4.8 | 3.21 | 3.19 | 4.17 | 2.1
2 | CD19 BRIDGE variant B2 (Fab, V domains shown) VH: EVQLVESGGGLVKPGGSLKLSCAASGYTFTSYVMHWVRQAPGKGLEWIGYINPYNDGTKYNEKFQGRVTISSDKSISTAYMELSSLRSEDTAMYYCARGTYYYGTRVFDYWGQGTLVTVSS VL: DIVMTQSPATLSLSPGERATLSCRSSKSLQNVNGNTYLYWFQQKPGQSPQLLIYRMSNLNSGVPDRFSGSGSGTEFTLTISSLEPEDFAVYYCMQHLEYPITFGAGTKLEIKR | 9.07 | 4.1 | 4.7 | 3.47 | 4.17 | 4.51 | 2.07
3 | CD19 BRIDGE variant B3 (Fab, V domains shown) VH: EVQLVESGGGLVKPGGSLKLSCAASGYTFTSYVMHWVRQAPGKGLEWIGYINPYNDGTKYNEKFQGRVTISSDKSISTAYMELSSLRSEDTAMYYCARGTYYYGTRVFDYWGQGTLVTVSS VL: DIVMTQSPATLSLSPGERATLSCRSSKSLQNVNGNTYLYWFQQKPGQSPQLLIYRMSNLNSGVPDRFSGSGSGTEFTLTISSLEPEDFAVYYCMQHLEYPITFGAGTKLEIKR | 11.8 | 4.1 | 4.7 | 3.63 | 5.43 | 4.71 | 2.05
4 | CD19 BRIDGE variant B7 (Fab, V domains shown) VH: EVQLVESGGGLVKPGGSLKLSCAASGYTFTSYVMHWVRQAPGKGLEWIGYINPYNDGTKYNEKFQGRVTISSDKSISTAYMELSSLRSEDTAMYYCARGTYYYGTRVFDYWGQGTLVTVSS VL: DIVMTQSPATLSLSPGERATLSCRSSKSLQNVNGNTYLYWFQQKPGQSPQLLIYRMSNLNSGVPDRFSGSGSGTEFTLTISSLEPEDFAVYYCMQHLEYPITFGAGTKLEIKR | 16.5 | 4 | 5 | 3.31 | 7.57 | 4.3 | 2.22
5 | CD19 BRIDGE variant B4 (Fab) heavy: EVQLVESGGGLVKPGGSLKLSCAASGYTFTSYVMHWVRQAPGKGLEWIGYINPYNDGTKYNEKFQGRVTISSDKSISTAYMELSSLRSEDTAMYYCARGTYYYGTRVFDYWGQGTLVTVSSASTKGPSVFPLAPSSKSTSGGTAALGCLVKDYFPEPVTVSWNSGALTSGVHTFPAVLQSSGLYSLSSVVTVPSSSLGTQTYICNVNHKPSNTKVDKKVEPKSCHHHHHH light: GHNYTTRNILPGLNITSTFHKTSGSGKEPKSSDKTHTDIVMTQSPATLSLSPGERATLSCRSSKSLQNVNGNTYLYWFQQKPGQSPQLLIYRMSNLNSGVPDRFSGSGSGTEFTLTISSLEPEDFAVYYCMQHLEYPITFGAGTKLEIKRTVAAPSVFIFPPSDEQLKSGTASVVCLLNNFYPREAKVQWKVDNALQSGNSQESVTEQDSKDSTYSLSSTLTLSKADYEKHKVYACEVTHQGLSSPVTKSFNRGEC | 19.6 | 4.1 | 4.7 | 3.89 | 9.02 | 5.05 | 2.05
6 | CD19 BRIDGE variant B6 (Fab) heavy: EVQLVESGGGLVKPGGSLKLSCAASGYTFTSYVMHWVRQAPGKGLEWIGYINPYNDGTKYNEKFQGRVTISSDKSISTAYMELSSLRSEDTAMYYCARGTYYYGTRVFDYWGQGTLVTVSSASTKGPSVFPLAPSSKSTSGGTAALGCLVKDYFPEPVTVSWNSGALTSGVHTFPAVLQSSGLYSLSSVVTVPSSSLGTQTYICNVNHKPSNTKVDKKVEPKSCHHHHHH light: GHNYTTRNILPGLNITSTFHKTSGSGKGGGSEPKSSDKTHTDIVMTQSPATLSLSPGERATLSCRSSKSLQNVNGNTYLYWFQQKPGQSPQLLIYRMSNLNSGVPDRFSGSGSGTEFTLTISSLEPEDFAVYYCMQHLEYPITFGAGTKLEIKRTVAAPSVFIFPPSDEQLKSGTASVVCLLNNFYPREAKVQWKVDNALQSGNSQESVTEQDSKDSTYSLSSTLTLSKADYEKHKVYACEVTHQGLSSPVTKSFNRGEC | 11.5 | 4.1 | 4.5 | 3.33 | 5.29 | 4.32 | 1.99
7 | CD19 BRIDGE variant B5 (Fab) heavy: EVQLVESGGGLVKPGGSLKLSCAASGYTFTSYVMHWVRQAPGKGLEWIGYINPYNDGTKYNEKFQGRVTISSDKSISTAYMELSSLRSEDTAMYYCARGTYYYGTRVFDYWGQGTLVTVSSASTKGPSVFPLAPSSKSTSGGTAALGCLVKDYFPEPVTVSWNSGALTSGVHTFPAVLQSSGLYSLSSVVTVPSSSLGTQTYICNVNHKPSNTKVDKKVEPKSCHHHHHH light: GHNYTTRNILPGLNITSTFHKTSGSGKGSEPKSSDKTHTDIVMTQSPATLSLSPGERATLSCRSSKSLQNVNGNTYLYWFQQKPGQSPQLLIYRMSNLNSGVPDRFSGSGSGTEFTLTISSLEPEDFAVYYCMQHLEYPITFGAGTKLEIKRTVAAPSVFIFPPSDEQLKSGTASVVCLLNNFYPREAKVQWKVDNALQSGNSQESVTEQDSKDSTYSLSSTLTLSKADYEKHKVYACEVTHQGLSSPVTKSFNRGEC | 12 | 4.2 | 4.7 | 3.4 | 5.5 | 4.42 | 2.08
8 | CD19 BRIDGE variant B10 (Fab) heavy: EVQLVESGGGLVKPGGSLKLSCAASGYTFTSYVMHWVRQAPGKGLEWIGYINPYNDGTKYNEKFQGRVTISSDKSISTAYMELSSLRSEDTAMYYCARGTYYYGTRVFDYWGQGTLVTVSSASTKGPSVFPLAPSSKSTSGGTAALGCLVKDYFPEPVTVSWNSGALTSGVHTFPAVLQSSGLYSLSSVVTVPSSSLGTQTYICNVNHKPSNTKVDKKVEPKSCHHHHHH light: GHNYTTRNILPGLNITSTFHKTSGSGKEPKSSDKTHTGSDIVMTQSPATLSLSPGERATLSCRSSKSLQNVNGNTYLYWFQQKPGQSPQLLIYRMSNLNSGVPDRFSGSGSGTEFTLTISSLEPEDFAVYYCMQHLEYPITFGAGTKLEIKRTVAAPSVFIFPPSDEQLKSGTASVVCLLNNFYPREAKVQWKVDNALQSGNSQESVTEQDSKDSTYSLSSTLTLSKADYEKHKVYACEVTHQGLSSPVTKSFNRGEC | 16.8 | 4.3 | 5.1 | 3.27 | 7.71 | 4.25 | 2.26
